Measured values reported in the supplement of paper PMC10065799, “High-throughput profiling of sequence recognition by tyrosine kinases and SH2 domains using bacterial peptide display” (eLife, 2023).

Tests used:
[1] = biological target: Hck (UniProt P08631); experiment: phosphorylation enrichment, bacterial display (enrichment ratio); higher = better substrate or ligand; peptides without Tyr show the background
[2] = biological target: FGFR1 (UniProt P11362); experiment: as above
[3] = biological target: Jak2 (UniProt O60674); experiment: as above
[4] = biological target: Fyn (UniProt P06241); experiment: as above
[5] = test system: AncSZ; experiment: as above
[6] = biological target: Fes (UniProt P07332); experiment: as above
[7] = test system: c-Src; experiment: as above
[8] = biological target: FGFR3 (UniProt P22607); experiment: as above
[9] = biological target: EPHB1 (UniProt P54762); experiment: as above
[10] = test system: Fer (mouse); experiment: as above
[11] = test system: c-Abl (mouse); experiment: as above
[12] = biological target: EPHB2 (UniProt P29323); experiment: as above
[13] = biological target: MERTK (UniProt Q12866); experiment: as above
[14] = biological target: c-Src SH2; experiment: SH2 binding enrichment of the phosphorylated peptide, bacterial display (enrichment ratio); higher = better substrate or ligand; peptides without Tyr show the background
[15] = biological target: Grb2 SH2 (UniProt P62993); experiment: as above
[16] = biological target: SHP2-C SH2; experiment: as above
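Throughout, for SH2 binding enrichment of the phosphorylated peptide, bacterial display: peptide library displayed on the E. coli surface as eCPX fusions, selected cells deep-sequenced, score is each peptide's frequency after selection divided by its frequency in the input.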
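Throughout, for phosphorylation enrichment, bacterial display: 11-residue human phosphosite peptides and single-mutation variants displayed on the E. coli surface, counted by deep sequencing, each peptide's frequency after selection divided by its frequency in the unselected input library; frequency after pTyr selection over input frequency; kinase dosed for 20-30% of maximal phosphorylation in three min.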

Chain of MERTK (Q12866 whole entry, looked up): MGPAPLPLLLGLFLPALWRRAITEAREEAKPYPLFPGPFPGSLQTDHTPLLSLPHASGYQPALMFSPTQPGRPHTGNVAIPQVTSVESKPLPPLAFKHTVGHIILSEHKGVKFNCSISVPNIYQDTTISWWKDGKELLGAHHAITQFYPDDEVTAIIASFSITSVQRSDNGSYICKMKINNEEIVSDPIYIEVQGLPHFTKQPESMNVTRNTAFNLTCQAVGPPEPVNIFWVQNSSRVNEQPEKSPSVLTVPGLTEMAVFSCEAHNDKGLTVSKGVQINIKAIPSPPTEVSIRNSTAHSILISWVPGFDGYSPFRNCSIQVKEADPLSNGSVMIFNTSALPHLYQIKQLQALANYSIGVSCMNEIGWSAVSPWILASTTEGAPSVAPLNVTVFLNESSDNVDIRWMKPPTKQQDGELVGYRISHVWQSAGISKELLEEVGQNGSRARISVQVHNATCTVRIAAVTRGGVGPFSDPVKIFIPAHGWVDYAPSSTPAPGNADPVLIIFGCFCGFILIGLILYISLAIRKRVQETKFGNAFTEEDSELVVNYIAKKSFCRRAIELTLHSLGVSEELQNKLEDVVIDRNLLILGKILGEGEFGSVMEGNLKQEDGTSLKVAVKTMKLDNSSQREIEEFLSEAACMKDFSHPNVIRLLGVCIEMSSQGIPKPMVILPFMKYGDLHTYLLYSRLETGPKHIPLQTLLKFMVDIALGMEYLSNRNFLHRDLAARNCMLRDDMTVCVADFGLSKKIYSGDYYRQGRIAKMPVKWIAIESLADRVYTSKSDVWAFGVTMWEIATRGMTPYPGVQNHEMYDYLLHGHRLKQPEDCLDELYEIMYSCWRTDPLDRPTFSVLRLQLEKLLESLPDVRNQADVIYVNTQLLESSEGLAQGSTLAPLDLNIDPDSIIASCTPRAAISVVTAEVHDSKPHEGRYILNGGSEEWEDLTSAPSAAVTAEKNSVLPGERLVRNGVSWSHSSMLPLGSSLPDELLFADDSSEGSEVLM
Chain of EPHB1 (P54762 whole entry, looked up): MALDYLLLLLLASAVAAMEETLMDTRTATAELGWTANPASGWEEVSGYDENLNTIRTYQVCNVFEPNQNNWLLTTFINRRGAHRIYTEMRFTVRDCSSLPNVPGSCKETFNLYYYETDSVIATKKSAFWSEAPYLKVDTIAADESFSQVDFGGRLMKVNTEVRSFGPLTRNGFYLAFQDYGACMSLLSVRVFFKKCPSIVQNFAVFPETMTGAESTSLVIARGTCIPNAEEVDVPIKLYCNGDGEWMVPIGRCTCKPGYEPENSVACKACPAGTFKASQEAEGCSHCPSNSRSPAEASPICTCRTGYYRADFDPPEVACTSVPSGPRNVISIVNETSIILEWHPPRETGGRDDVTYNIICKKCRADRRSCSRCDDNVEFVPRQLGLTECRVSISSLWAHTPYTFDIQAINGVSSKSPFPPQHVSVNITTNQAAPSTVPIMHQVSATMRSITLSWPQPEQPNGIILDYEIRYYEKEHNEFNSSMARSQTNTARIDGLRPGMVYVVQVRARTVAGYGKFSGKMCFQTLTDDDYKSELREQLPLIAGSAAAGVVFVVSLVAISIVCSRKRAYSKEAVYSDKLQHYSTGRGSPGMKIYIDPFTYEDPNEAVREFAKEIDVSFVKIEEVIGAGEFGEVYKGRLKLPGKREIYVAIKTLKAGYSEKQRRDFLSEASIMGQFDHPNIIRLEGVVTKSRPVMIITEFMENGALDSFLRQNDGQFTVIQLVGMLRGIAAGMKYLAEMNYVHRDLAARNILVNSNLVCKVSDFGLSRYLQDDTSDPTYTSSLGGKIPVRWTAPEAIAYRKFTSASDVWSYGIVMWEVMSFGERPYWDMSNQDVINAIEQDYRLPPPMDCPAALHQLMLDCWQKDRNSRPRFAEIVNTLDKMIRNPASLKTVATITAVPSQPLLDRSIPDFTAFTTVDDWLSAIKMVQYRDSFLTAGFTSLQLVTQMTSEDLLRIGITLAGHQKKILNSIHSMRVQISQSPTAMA
Chain of Hck (P08631 whole entry, looked up): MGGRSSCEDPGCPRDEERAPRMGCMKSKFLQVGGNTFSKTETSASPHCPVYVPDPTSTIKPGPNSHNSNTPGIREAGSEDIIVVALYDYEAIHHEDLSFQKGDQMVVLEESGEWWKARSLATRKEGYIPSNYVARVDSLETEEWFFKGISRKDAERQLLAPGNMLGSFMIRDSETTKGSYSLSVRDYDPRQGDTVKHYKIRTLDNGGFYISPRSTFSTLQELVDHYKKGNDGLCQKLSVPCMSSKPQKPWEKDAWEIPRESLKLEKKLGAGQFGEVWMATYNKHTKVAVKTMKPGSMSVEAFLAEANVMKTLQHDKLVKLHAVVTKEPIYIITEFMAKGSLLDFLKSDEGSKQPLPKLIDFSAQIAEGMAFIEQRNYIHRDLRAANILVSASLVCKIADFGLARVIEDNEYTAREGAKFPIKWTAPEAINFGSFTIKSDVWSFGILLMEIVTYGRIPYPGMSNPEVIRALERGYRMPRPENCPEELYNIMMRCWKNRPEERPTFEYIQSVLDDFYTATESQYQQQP
Chain of FGFR1 (P11362 whole entry, looked up): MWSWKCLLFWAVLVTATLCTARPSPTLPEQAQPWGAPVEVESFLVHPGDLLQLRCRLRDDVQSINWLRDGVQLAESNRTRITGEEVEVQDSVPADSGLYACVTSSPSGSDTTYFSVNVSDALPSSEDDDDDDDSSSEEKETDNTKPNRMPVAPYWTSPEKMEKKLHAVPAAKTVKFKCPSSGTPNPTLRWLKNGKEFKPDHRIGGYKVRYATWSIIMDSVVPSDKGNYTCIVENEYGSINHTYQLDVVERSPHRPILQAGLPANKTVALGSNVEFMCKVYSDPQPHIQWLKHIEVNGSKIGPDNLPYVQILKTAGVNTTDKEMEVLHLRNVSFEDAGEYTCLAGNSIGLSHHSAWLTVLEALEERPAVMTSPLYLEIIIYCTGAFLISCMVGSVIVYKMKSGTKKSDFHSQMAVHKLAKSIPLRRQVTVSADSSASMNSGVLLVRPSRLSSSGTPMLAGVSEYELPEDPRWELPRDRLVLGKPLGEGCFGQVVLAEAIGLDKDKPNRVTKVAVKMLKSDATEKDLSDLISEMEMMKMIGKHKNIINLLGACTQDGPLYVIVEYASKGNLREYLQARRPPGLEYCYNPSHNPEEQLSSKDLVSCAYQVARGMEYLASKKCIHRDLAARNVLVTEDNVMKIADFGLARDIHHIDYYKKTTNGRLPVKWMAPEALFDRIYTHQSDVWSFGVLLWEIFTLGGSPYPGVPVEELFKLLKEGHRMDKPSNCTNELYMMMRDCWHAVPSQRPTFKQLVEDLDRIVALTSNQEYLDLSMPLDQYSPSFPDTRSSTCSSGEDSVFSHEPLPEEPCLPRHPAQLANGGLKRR
Chain of Fes (P07332 whole entry, looked up): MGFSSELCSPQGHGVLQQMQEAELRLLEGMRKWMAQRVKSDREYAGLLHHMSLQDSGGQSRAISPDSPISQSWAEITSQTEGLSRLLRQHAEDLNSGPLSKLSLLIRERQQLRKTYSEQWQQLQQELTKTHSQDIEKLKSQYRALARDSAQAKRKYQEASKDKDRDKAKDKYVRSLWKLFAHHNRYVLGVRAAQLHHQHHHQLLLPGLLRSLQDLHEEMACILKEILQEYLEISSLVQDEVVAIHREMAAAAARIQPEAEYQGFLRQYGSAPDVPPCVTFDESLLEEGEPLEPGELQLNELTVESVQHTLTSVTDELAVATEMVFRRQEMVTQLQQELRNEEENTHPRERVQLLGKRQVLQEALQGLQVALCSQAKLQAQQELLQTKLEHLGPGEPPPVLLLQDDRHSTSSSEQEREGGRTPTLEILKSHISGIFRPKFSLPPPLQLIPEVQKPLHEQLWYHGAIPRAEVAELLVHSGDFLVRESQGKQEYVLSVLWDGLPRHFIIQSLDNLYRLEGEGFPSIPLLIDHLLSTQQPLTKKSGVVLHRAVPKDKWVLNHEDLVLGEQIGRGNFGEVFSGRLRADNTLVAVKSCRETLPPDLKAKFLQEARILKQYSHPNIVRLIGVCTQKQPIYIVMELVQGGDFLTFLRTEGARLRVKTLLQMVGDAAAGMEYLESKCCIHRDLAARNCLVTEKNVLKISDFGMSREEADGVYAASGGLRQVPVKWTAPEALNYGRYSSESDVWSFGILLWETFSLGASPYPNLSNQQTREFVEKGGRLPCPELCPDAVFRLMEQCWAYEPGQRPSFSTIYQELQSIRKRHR
Chain of Fyn (P06241 whole entry, looked up): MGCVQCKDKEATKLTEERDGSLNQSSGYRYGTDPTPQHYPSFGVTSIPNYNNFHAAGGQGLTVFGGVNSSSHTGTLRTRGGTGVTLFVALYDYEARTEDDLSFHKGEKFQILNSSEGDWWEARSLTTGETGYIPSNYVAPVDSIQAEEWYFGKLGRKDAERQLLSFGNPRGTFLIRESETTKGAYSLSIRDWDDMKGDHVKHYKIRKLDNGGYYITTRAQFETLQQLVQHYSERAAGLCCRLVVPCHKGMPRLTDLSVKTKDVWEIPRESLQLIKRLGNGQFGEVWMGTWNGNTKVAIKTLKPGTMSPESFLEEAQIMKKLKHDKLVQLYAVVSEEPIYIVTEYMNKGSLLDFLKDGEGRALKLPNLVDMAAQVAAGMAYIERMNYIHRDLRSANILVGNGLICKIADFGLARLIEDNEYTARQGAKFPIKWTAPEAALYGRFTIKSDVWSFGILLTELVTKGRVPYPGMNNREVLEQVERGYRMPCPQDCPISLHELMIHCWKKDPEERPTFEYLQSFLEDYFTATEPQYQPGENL

Row | Sequence | SH2 binding enrichment [14] | SH2 binding enrichment [15] | SH2 binding enrichment [16] | phosphorylation enrichment [1] | phosphorylation enrichment [2] | phosphorylation enrichment [3] | phosphorylation enrichment [4] | phosphorylation enrichment [5] | phosphorylation enrichment [6] | phosphorylation enrichment [7] | phosphorylation enrichment [8] | phosphorylation enrichment [9] | phosphorylation enrichment [10] | phosphorylation enrichment [11] | phosphorylation enrichment [12] | phosphorylation enrichment [13]
1 | RAYSWYQHQRA [NDST1_Y714] | 1.18 | 1.58 | 1.79 | 0.582 | 0.472 | 1.06 | 0.242 | 1.03 | 1.16 | 0.527 | 0.792 | 0.538 | 0.641 | 0.964 | 0.716 | 0.619
2 | IEKLPYIDKWF [CPS1_Y872_T871P] | 0.642 | 0.782 | 0.679 | 0.456 | 0.51 | 0.833 | 0.368 | 0.953 | 1.01 | 0.479 | 0.567 | 0.472 | 0.333 | 0.574 | 0.482 | 0.359
3 | NYYDTYIKTCL [IQGAP2_Y1445] | 0.401 | 0.841 | 0.595 | 2.38 | 7.55 | 1.5 | 3.03 | 1.93 | 1.25 | 2.34 | 5.88 | 5.9 | 1.1 | 0.928 | 5.75 | 3.49
4 | LRYDVYGGENE [STOX1_Y610_E608D] | 0.875 | 0.925 | 0.675 | 1.41 | 1.09 | 2.78 | 1.48 | 2.74 | 3.02 | 1.94 | 1.29 | 1.82 | 1.03 | 2.15 | 1.57 | 1.18
5 | RALCHYYKLNI [ETV6_Y401_R399C] | 1.45 | 1.74 | 1.23 | 1.59 | 9.12 | 6.35 | 0.947 | 1.88 | 1.99 | 2.63 | 5.19 | 1.09 | 1.29 | 2.78 | 1.16 | 3.95
6 | LSQAKYQIRYR [CRLF1_Y272_F268S] | 0.368 | 1.29 | 0.558 | 0.667 | 0.638 | 0.711 | 0.776 | 0.617 | 0.768 | 0.387 | 0.603 | 0.506 | 0.467 | 0.592 | 0.764 | 0.479
7 | LQEKSYIKGTS [LCTL_Y331] | 0.546 | 1.41 | 1.1 | 0.912 | 1.15 | 0.595 | 0.616 | 1.33 | 1.21 | 0.9 | 1.08 | 0.652 | 0.96 | 0.723 | 1.02 | 0.609
8 | VKFLGYPPPEI [KDR_Y357_A352V_YF] | 0.523 | 0.809 | 0.852 | 0.369 | 0.398 | 0.744 | 0.443 | 0.692 | 0.974 | 0.371 | 0.555 | 0.452 | 0.427 | 0.688 | 0.618 | 0.402
9 | AVLSLYASGCT [ACTA2_Y145_R149C] | 0.379 | 0.861 | 0.547 | 0.634 | 0.512 | 1.2 | 0.538 | 1.2 | 1.39 | 0.46 | 0.811 | 0.825 | 0.576 | 0.965 | 0.658 | 0.432
10 | WIPIQYLIISE [NOG_Y222_P223L] | 0.923 | 1.21 | 1.12 | 0.573 | 0.58 | 1.2 | 0.474 | 1.2 | 1.43 | 0.457 | 0.838 | 0.624 | 0.666 | 0.858 | 0.723 | 0.436
11 | ITRDIYETDFF [INSR_Y1185_M1180I_YF] | 1.12 | 0.83 | 0.485 | 1.12 | 0.539 | 1.16 | 1.46 | 1.44 | 1.25 | 1.75 | 0.738 | 0.803 | 0.983 | 0.698 | 0.711 | 1.26
12 | TVDASYFGGRG [ANTXR2_Y380_YF] | 0.474 | 1.01 | 0.513 | 0.425 | 0.372 | 0.677 | 0.403 | 0.569 | 0.567 | 0.413 | 0.394 | 0.333 | 0.312 | 0.519 | 0.337 | 0.438
13 | EKKDIYKAGEQ [CFH_Y1008_V1007I] | 0.365 | 0.826 | 0.648 | 0.373 | 0.327 | 0.488 | 0.341 | 0.493 | 0.696 | 0.431 | 0.364 | 0.353 | 0.362 | 0.5 | 0.424 | 0.362
14 | SIKNKYVTALY [KCNH2_Y611_D609N] | 0.381 | 0.909 | 0.932 | 0.47 | 0.409 | 0.605 | 0.359 | 0.559 | 0.592 | 0.461 | 0.598 | 0.349 | 0.518 | 0.454 | 0.498 | 0.528
15 | ALCHFYKLNII [ETV6_Y402_R399C_YF] | 0.915 | 1.12 | 1.06 | 0.544 | 0.479 | 1.26 | 0.537 | 1.19 | 1.42 | 0.581 | 0.806 | 0.607 | 0.692 | 0.833 | 0.732 | 0.499
16 | LDLPGYCLLRE [CCDC116_Y291_P293L] | 0.661 | 0.686 | 0.674 | 0.636 | 1.03 | 2.21 | 0.908 | 1.82 | 2.21 | 0.736 | 1.39 | 1.88 | 1.63 | 1.65 | 1.28 | 0.765
17 | CNSFQYGGGGG [NPPA_Y151_R150Q] | 0.531 | 0.845 | 0.806 | 0.497 | 0.409 | 0.716 | 0.436 | 0.794 | 0.919 | 0.532 | 0.549 | 0.501 | 0.512 | 0.731 | 0.452 | 0.447
18 | RLQEDYDHSYY [ESD_Y258_G257D] | 1.16 | 0.932 | 0.741 | 0.781 | 0.923 | 1.56 | 0.824 | 1.78 | 1.55 | 1.06 | 1.03 | 0.814 | 0.572 | 0.943 | 0.811 | 0.754
19 | TRDVNYGWIIR [MT-CYB_Y75] | 0.55 | 1.22 | 1.28 | 0.422 | 0.344 | 0.949 | 0.475 | 0.997 | 0.999 | 0.423 | 0.654 | 0.542 | 0.443 | 0.595 | 0.91 | 0.756
20 | NDKLCYEVSSP [CDH13_Y66_R65C] | 0.413 | 0.569 | 0.498 | 0.548 | 0.514 | 1 | 0.562 | 1.52 | 1.53 | 0.596 | 0.876 | 0.677 | 0.883 | 0.837 | 0.724 | 0.394

The next lines start with results.

Row | SH2 binding enrichment [14] | SH2 binding enrichment [15] | SH2 binding enrichment [16] | Sequence | phosphorylation enrichment [1] | phosphorylation enrichment [2] | phosphorylation enrichment [3] | phosphorylation enrichment [4] | phosphorylation enrichment [5] | phosphorylation enrichment [6] | phosphorylation enrichment [7] | phosphorylation enrichment [8] | phosphorylation enrichment [9] | phosphorylation enrichment [10] | phosphorylation enrichment [11] | phosphorylation enrichment [12] | phosphorylation enrichment [13]
21 | 0.483 | 0.975 | 0.765 | SLLTDCSPQLQ [OTC_Y345_Y345C] | 0.554 | 0.518 | 0.905 | 0.454 | 0.999 | 1.06 | 0.475 | 0.707 | 0.567 | 0.522 | 0.768 | 0.548 | 0.441
22 | 0.409 | 0.665 | 0.633 | RTEAQYRFIFM [PTPN11_Y511_Q506R_YF] | 0.398 | 0.512 | 1.14 | 0.312 | 1.37 | 1.23 | 0.445 | 1.03 | 0.52 | 0.546 | 0.765 | 0.576 | 0.413
23 | 0.549 | 0.855 | 0.701 | AAILGYCHGEA [XPC_Y669_R671H] | 0.53 | 0.523 | 0.725 | 0.535 | 0.975 | 1.03 | 0.373 | 0.733 | 0.581 | 0.474 | 0.7 | 0.75 | 0.827
24 | 0.683 | 1.06 | 0.782 | MPQNEYIELHC [NSA2_Y6_R11C] | 0.626 | 3.95 | 0.939 | 0.615 | 1.39 | 1.2 | 0.625 | 2.58 | 1.2 | 0.557 | 0.658 | 0.862 | 0.478
25 | 0.427 | 0.846 | 0.647 | VKPENYRRPDI [VHL_Y175_L178P] | 0.364 | 0.388 | 0.525 | 0.333 | 0.566 | 0.699 | 0.436 | 0.526 | 0.335 | 0.344 | 0.63 | 0.468 | 0.371
26 | 0.42 | 0.778 | 0.669 | VDDQIYFFRKP [PBRM1_Y1289_E1287Q_YF] | 5.8 | 3.43 | 1.61 | 6.38 | 2.49 | 1.55 | 4.67 | 3.47 | 0.961 | 0.728 | 3.29 | 0.785 | 1.42
27 | 1.34 | 0.918 | 0.804 | MSRDVYSIDYY [NTRK2_Y702_T704I] | 4 | 4.29 | 0.825 | 8.72 | 1.54 | 0.9 | 6.79 | 3.12 | 1.47 | 1.22 | 0.538 | 1.73 | 7.16
28 | 0.74 | 1.06 | 1 | ARMTNCGLPRF [TSPAN12_Y138_Y138C_YF] | 0.358 | 0.387 | 0.492 | 0.322 | 0.58 | 0.689 | 0.323 | 0.453 | 0.292 | 0.352 | 0.591 | 0.421 | 0.368
29 | 0.527 | 0.983 | 0.638 | VFAADYFKLLG [ROR2_Y645_YF] | 0.439 | 7.25 | 7.31 | 0.417 | 0.819 | 0.643 | 0.562 | 4.37 | 0.52 | 0.467 | 0.498 | 0.403 | 0.394
30 | 0.456 | 0.876 | 0.519 | PVDVAYRRGYF [PLEC_Y2967] | 0.587 | 0.565 | 0.556 | 0.642 | 0.867 | 0.661 | 0.361 | 0.588 | 0.385 | 0.601 | 0.743 | 0.577 | 0.399
31 | 0.819 | 1.35 | 1.27 | IYHLSYIHNCE [PDE6B_Y227_L228I] | 1.81 | 2.65 | 1.18 | 2.78 | 1.3 | 1.38 | 2.65 | 2.16 | 0.783 | 1.67 | 4.3 | 0.724 | 4.22
32 | 0.603 | 0.97 | 0.962 | HQNGMYGLHQD [SGSH_Y89] | 0.564 | 0.673 | 0.726 | 0.568 | 0.643 | 0.886 | 0.647 | 0.516 | 0.346 | 0.656 | 0.726 | 0.591 | 0.678
33 | 1.25 | 1.1 | 0.758 | KPVEEYANCHL [TF_Y593] | 0.613 | 0.61 | 0.915 | 0.472 | 0.96 | 1.11 | 0.547 | 0.65 | 0.623 | 0.481 | 0.755 | 0.549 | 0.544
